Target: BoNT serotype A (Clostridium botulinum, UniProt P0DPI0 2-1296)
Assay: affinity; method not stated (yeast display affinity maturation)

BoNT serotype A, sequence (P0DPI0 2-1296 limits assumed): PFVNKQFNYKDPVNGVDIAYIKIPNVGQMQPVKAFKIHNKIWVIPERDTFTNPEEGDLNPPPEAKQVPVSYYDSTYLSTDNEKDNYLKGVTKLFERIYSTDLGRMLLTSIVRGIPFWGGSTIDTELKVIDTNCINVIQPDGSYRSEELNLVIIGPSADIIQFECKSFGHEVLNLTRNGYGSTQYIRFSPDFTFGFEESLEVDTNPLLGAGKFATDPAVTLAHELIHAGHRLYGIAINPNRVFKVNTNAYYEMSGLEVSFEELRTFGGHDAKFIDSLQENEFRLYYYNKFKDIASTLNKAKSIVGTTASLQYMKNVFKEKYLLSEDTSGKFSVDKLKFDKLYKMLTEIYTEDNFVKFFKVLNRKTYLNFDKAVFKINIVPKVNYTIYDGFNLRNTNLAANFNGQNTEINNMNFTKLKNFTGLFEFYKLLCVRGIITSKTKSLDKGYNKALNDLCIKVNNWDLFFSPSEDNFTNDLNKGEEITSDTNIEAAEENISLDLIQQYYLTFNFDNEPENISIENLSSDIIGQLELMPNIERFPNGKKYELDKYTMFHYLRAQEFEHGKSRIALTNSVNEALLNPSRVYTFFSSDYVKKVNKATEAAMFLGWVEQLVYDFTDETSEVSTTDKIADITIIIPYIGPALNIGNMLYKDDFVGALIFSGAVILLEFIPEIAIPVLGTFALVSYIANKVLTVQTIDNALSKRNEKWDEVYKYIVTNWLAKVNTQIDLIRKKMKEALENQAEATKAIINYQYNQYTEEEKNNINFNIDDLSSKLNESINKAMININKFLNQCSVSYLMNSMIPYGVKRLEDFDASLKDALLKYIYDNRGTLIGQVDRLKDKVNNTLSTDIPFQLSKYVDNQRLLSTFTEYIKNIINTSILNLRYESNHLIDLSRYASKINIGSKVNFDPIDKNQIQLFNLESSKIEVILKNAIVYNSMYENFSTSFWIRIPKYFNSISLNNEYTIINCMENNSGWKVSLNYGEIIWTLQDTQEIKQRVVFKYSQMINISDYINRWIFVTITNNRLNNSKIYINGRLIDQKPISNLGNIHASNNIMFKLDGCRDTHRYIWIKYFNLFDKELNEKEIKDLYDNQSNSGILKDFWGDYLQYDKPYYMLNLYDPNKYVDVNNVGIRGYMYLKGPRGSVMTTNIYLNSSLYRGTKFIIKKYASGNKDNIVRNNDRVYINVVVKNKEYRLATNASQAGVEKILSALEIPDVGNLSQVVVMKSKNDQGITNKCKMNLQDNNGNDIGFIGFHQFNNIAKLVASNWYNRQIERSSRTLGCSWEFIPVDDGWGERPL

B1: H7 VHH (VHH)
VHH: QVQLVESGGGLVQVGGSLRLSCVVSGSDISGIAMGWYRQAPGKRREMVADIFSGGSTDYAGSVKGRFTISRDNAKKTSYLQMNNVKPEDTGVYYCRLYGSGDYWGQGTQVTVSS
Question: How did the Kd turn out when B1 was run?
Answer: 0.042 nM

Reference: patent US20180237507A1 (CITY OF HOPE, published 2018)
